# Laboratory results: patent US20210301005A1
# Assays:
# [1] = target: human TGFβ1, mature receptor-binding domain (human) (UniProt P01137)
# [2] = target: human TGFβ2, mature receptor-binding domain (human)
# [3] = target: human TGFβ3, mature dimeric form (human) (UniProt P10600)
# [4] = target: human TGFβ1, mature receptor-binding domain (human) (UniProt P01137); remark: listed apart in the source
# [5] = target: human TGFβ2, mature receptor-binding domain (human); remark: listed apart in the source
# [6] = target: human TGFβ3, mature dimeric form (human) (UniProt P10600); remark: listed apart in the source
# Sequence of Fc-LAP1 (P01137 30-278 limits assumed): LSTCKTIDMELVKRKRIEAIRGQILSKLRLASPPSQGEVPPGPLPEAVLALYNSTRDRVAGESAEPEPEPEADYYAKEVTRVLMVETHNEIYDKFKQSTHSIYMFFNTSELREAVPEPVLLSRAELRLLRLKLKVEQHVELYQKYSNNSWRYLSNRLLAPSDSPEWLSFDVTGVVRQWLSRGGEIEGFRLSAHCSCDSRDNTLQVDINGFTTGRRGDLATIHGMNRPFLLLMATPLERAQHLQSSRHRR
# Sequence of human TGFβ1, mature receptor-binding domain (human) (P01137 279-390 limits assumed): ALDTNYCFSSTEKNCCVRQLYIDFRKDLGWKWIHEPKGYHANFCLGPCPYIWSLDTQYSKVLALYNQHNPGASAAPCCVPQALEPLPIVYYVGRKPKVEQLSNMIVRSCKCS
# Sequence of human TGFβ2, mature receptor-binding domain (human) (P09858 303-414 limits assumed): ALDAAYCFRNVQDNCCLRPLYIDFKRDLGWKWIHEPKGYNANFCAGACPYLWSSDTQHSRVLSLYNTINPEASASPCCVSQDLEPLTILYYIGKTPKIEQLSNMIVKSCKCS
# Sequence of human TGFβ3, mature dimeric form (human) (P10600 301-412): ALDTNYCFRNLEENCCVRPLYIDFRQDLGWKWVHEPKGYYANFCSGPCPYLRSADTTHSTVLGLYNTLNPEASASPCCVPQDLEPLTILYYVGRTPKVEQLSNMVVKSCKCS
substance,measurement,setting,value
Fc-LAP1 (from UniProt P01137 30-278) (Fc fusion),IC50,[1],96 nM
same,IC50,[2],64 nM
same,IC50,[3],43 nM
same,IC50 (read off the curve),[4],0.1 nM
same,IC50 (read off the curve),[5],0.07 nM
same,IC50 (read off the curve),[6],0.04 nM
